Experimental findings from paper PMC5454378, “Histone deacetylase 10 structure and molecular function as a polyamine deacetylase” (Nature Communications, 2017) are described below.

Holding throughout (test): purified protein, by the assay type
Substrate in data set [1]: CC(=O)NCCCC[C@H](NC(C)=O)C(N)=O
Also noted: discontinuous LC-MS deacetylation assay, dansylated product quantified, steady-state kinetics. The settings on record: 50.0 °C. On the procedure: (§1) To study steady-state kinetics with non-fluorogenic peptide substrates and acetylpolyamines, a discontinuous LC–MS was employed based on the protocol of assaying nonfluorogenic acetyllysine peptide substrates for HDAC6 (ref. [17]). Assays were performed in triplicate. Briefly, 5 μl of enzyme (0.050–20 μM) in HEPES buffer (20 mM HEPES (pH 7.5), 100 mM NaCl, 5 mM KCl, 1 mM MgCl2) was added to 35 μl of substrate solution to initiate the reaction. After incubation for 15–60 min at room temperature, the reaction was quenched by addition of 50 μl of 20 mM dansyl chloride dissolved in acetonitrile followed by 10 μl of NaHCO3 (1.6 M, pH 10.0). The deacetylation products were derivatized with dansyl chloride at 50 °C for 2 hrs. The deacetylation products were detected by LC–MS using a Waters SQD equipped with an Acquity UPLC (Waters, Milford, MA, USA) and quantified by using the standard curves generated from the mass signals of the corresponding deacetylated polyamines and peptides. Inhibition of HDAC10 activity was measured by using 0.49 μM zHDAC10 with 192 μM N^8-acetylspermidine. Data were analysed by logistic regression for IC50 determination and the inhibition constant Ki was calculated based on the Cheng-Prusoff equation, Ki=IC50 / (1+[S]/KM)[45]. Assays were performed in triplicate at room temperature.

Substrate in data set [2]: CC(=O)NCCCC[C@H](NC(=O)[C@H](C)NC(=O)CNC(C)=O)C(=O)Nc1ccc2c(C)cc(=O)oc2c1
Set-up: fluorogenic AMC-conjugated acetyllysine peptide deacetylation, steady-state kinetics. From the text: To determine steady-state kinetic parameters for the hydrolysis of a variety of acetylpolyamine and acetyllysine substrates, we prepared full-length recombinant HDAC10 from human (H. sapiens, hHDAC10) and zebrafish (D. rerio, zHDAC10). The CDs of these orthologues are highly similar based on 63%/79% sequence identity/similarity; only full-length constructs yielded soluble proteins. We first assayed the lysine deacetylase activity of these constructs against two commercially available aminomethylcoumarin (AMC)-conjugated fluorogenic acetyllysine peptides, GAK(ac)-AMC and RGK(ac)-AMC (molecular structures of all substrates are shown in Supplementary Fig. 2). […] These measurements were consistent with earlier studies reporting that HDAC10 activity was not measurable using fluorogenic peptide substrates. We also tested activity with 11 non-fluorogenic acetyllysine substrates using a […] chromatography–mass spectrometry (LC–MS)-based discontinuous assay[17] to avoid potential steric clashes that might occur with the bulky AMC group. These substrates included K(ac)NL and GAK(ac)NLQ, which mimic the peptide segment containing K73 in the proposed HDAC10 substrate MutS homologue 2 (MSH2)[22]. Again, we observed no or very low catalytic activity (Fig. 2 and Supplementary Table 1). In comparison with its closest relative, the cytosolic isozyme HDAC6 (ref. [17]), HDAC10 was clearly not an efficient lysine deacetylase.

Substrate in data set [3]: CC(=O)NCCCN
Also noted: steady-state kinetics of acetylpolyamine deacetylation, discontinuous LC-MS after dansyl chloride derivatization. The settings on record: 50.0 °C. On the procedure: as §1, with “temperature. We next tested the PDAC activity of hHDAC10 and zHDAC10 against several polyamine substrates using the LC–MS assay (Fig. 2, Supplementary Fig. 3 and Supplementary Table 1). […] For hHDAC10 and zHDAC10, kcat/KM=2,900±200 and 4,600±300 M^−1 s^−1, respectively; in comparison, N^1-acetylspermidine was a poor substrate with kcat/KM=24±5 and 7±2 M^−1 s^−1, respectively. Substrate specificity trends observed for zHDAC10 and hHDAC10 matched those of the previously reported mammalian N^8-acetylspermidine deacetylase activity. […] As a negative control, we examined the N^8-acetylspermidine deacetylase activity of human and zebrafish HDAC6 (ref. [17]). HDAC6 preferentially catalyses the deacetylation of the peptide substrate RGK(ac)-AMC with a catalytic efficiency >100-fold greater than that for the deacetylation of N^8-acetylspermidine. Therefore, HDAC6 is clearly an acetyllysine deacetylase and HDAC10 is an N^8-acetylspermidine deacetylase. It is notable that the molecular function of HDAC10 coincides with the cellular function of the cytosolic PDAC indicated in Fig. 1a.” for “temperature.”

Substrate in data set [4]: CC(=O)NCCCCNCCCN
Set-up: steady-state kinetics of acetylpolyamine deacetylation, discontinuous LC-MS after dansyl chloride derivatization. The settings on record: 50.0 °C. On the procedure:
as §1, with “temperature. We next tested the PDAC activity of hHDAC10 and zHDAC10 against several polyamine substrates using the LC–MS assay (Fig. 2, Supplementary Fig. 3 and Supplementary Table 1). […] For hHDAC10 and zHDAC10, kcat/KM=2,900±200 and 4,600±300 M^−1 s^−1, respectively; in comparison, N^1-acetylspermidine was a poor substrate with kcat/KM=24±5 and 7±2 M^−1 s^−1, respectively. Substrate specificity trends observed for zHDAC10 and hHDAC10 matched those of the previously reported mammalian N^8-acetylspermidine deacetylase activity. […] As a negative control, we examined the N^8-acetylspermidine deacetylase activity of human and zebrafish HDAC6 (ref. [17]). HDAC6 preferentially catalyses the deacetylation of the peptide substrate RGK(ac)-AMC with a catalytic efficiency >100-fold greater than that for the deacetylation of N^8-acetylspermidine. Therefore, HDAC6 is clearly an acetyllysine deacetylase and HDAC10 is an N^8-acetylspermidine deacetylase. It is notable that the molecular function of HDAC10 coincides with the cellular function of the cytosolic PDAC indicated in Fig. 1a.” for “temperature.”

Substrate in data set [5]: CC(=O)NCCCCCCCCN
Set-up: steady-state kinetics of acetylpolyamine deacetylation, discontinuous LC-MS after dansyl chloride derivatization. The settings on record: 50.0 °C. On the procedure: as §1, with “temperature. We next tested the PDAC activity of hHDAC10 and zHDAC10 against several polyamine substrates using the LC–MS assay (Fig. 2, Supplementary Fig. 3 and Supplementary Table 1). […] For hHDAC10 and zHDAC10, kcat/KM=2,900±200 and 4,600±300 M^−1 s^−1, respectively; in comparison, N^1-acetylspermidine was a poor substrate with kcat/KM=24±5 and 7±2 M^−1 s^−1, respectively. Substrate specificity trends observed for zHDAC10 and hHDAC10 matched those of the previously reported mammalian N^8-acetylspermidine deacetylase activity. […] As a negative control, we examined the N^8-acetylspermidine deacetylase activity of human and zebrafish HDAC6 (ref. [17]). HDAC6 preferentially catalyses the deacetylation of the peptide substrate RGK(ac)-AMC with a catalytic efficiency >100-fold greater than that for the deacetylation of N^8-acetylspermidine. Therefore, HDAC6 is clearly an acetyllysine deacetylase and HDAC10 is an N^8-acetylspermidine deacetylase. It is notable that the molecular function of HDAC10 coincides with the cellular function of the cytosolic PDAC indicated in Fig. 1a.” for “temperature.”

Substrate in data set [6]: CC(=O)NCCCCCN
Set-up: steady-state kinetics of acetylpolyamine deacetylation, discontinuous LC-MS after dansyl chloride derivatization. The settings on record: 50.0 °C. On the procedure:
as §1, with “temperature. We next tested the PDAC activity of hHDAC10 and zHDAC10 against several polyamine substrates using the LC–MS assay (Fig. 2, Supplementary Fig. 3 and Supplementary Table 1). […] For hHDAC10 and zHDAC10, kcat/KM=2,900±200 and 4,600±300 M^−1 s^−1, respectively; in comparison, N^1-acetylspermidine was a poor substrate with kcat/KM=24±5 and 7±2 M^−1 s^−1, respectively. Substrate specificity trends observed for zHDAC10 and hHDAC10 matched those of the previously reported mammalian N^8-acetylspermidine deacetylase activity. […] As a negative control, we examined the N^8-acetylspermidine deacetylase activity of human and zebrafish HDAC6 (ref. [17]). HDAC6 preferentially catalyses the deacetylation of the peptide substrate RGK(ac)-AMC with a catalytic efficiency >100-fold greater than that for the deacetylation of N^8-acetylspermidine. Therefore, HDAC6 is clearly an acetyllysine deacetylase and HDAC10 is an N^8-acetylspermidine deacetylase. It is notable that the molecular function of HDAC10 coincides with the cellular function of the cytosolic PDAC indicated in Fig. 1a.” for “temperature.”

Substrate in data set [7]: CC(=O)NCCCNCCCCN
Set-up: steady-state kinetics of acetylpolyamine deacetylation, discontinuous LC-MS after dansyl chloride derivatization. The settings on record: 50.0 °C. On the procedure: as §1, with “temperature. We next tested the PDAC activity of hHDAC10 and zHDAC10 against several polyamine substrates using the LC–MS assay (Fig. 2, Supplementary Fig. 3 and Supplementary Table 1). […] For hHDAC10 and zHDAC10, kcat/KM=2,900±200 and 4,600±300 M^−1 s^−1, respectively; in comparison, N^1-acetylspermidine was a poor substrate with kcat/KM=24±5 and 7±2 M^−1 s^−1, respectively. Substrate specificity trends observed for zHDAC10 and hHDAC10 matched those of the previously reported mammalian N^8-acetylspermidine deacetylase activity. […] As a negative control, we examined the N^8-acetylspermidine deacetylase activity of human and zebrafish HDAC6 (ref. [17]). HDAC6 preferentially catalyses the deacetylation of the peptide substrate RGK(ac)-AMC with a catalytic efficiency >100-fold greater than that for the deacetylation of N^8-acetylspermidine. Therefore, HDAC6 is clearly an acetyllysine deacetylase and HDAC10 is an N^8-acetylspermidine deacetylase. It is notable that the molecular function of HDAC10 coincides with the cellular function of the cytosolic PDAC indicated in Fig. 1a.” for “temperature.”

Substrate in data set [8]: CC(=O)NCCCNCCCCNCCCN
Set-up: steady-state kinetics of acetylpolyamine deacetylation, discontinuous LC-MS after dansyl chloride derivatization. The settings on record: 50.0 °C. On the procedure:
as §1, with “temperature. We next tested the PDAC activity of hHDAC10 and zHDAC10 against several polyamine substrates using the LC–MS assay (Fig. 2, Supplementary Fig. 3 and Supplementary Table 1). […] For hHDAC10 and zHDAC10, kcat/KM=2,900±200 and 4,600±300 M^−1 s^−1, respectively; in comparison, N^1-acetylspermidine was a poor substrate with kcat/KM=24±5 and 7±2 M^−1 s^−1, respectively. Substrate specificity trends observed for zHDAC10 and hHDAC10 matched those of the previously reported mammalian N^8-acetylspermidine deacetylase activity. […] As a negative control, we examined the N^8-acetylspermidine deacetylase activity of human and zebrafish HDAC6 (ref. [17]). HDAC6 preferentially catalyses the deacetylation of the peptide substrate RGK(ac)-AMC with a catalytic efficiency >100-fold greater than that for the deacetylation of N^8-acetylspermidine. Therefore, HDAC6 is clearly an acetyllysine deacetylase and HDAC10 is an N^8-acetylspermidine deacetylase. It is notable that the molecular function of HDAC10 coincides with the cellular function of the cytosolic PDAC indicated in Fig. 1a.” for “temperature.”

Broadly, the Km is the substrate concentration at which the rate is half of its maximum. As usually defined, the kcat is the maximal rate divided by the concentration of active sites. One may read the kcat/Km as the second-order rate constant that governs catalysis at low substrate concentration.

B1: acetylpolyamine amidohydrolase (APAH) (Mycoplana ramosa) (protein)
chain: MRVIFSEDHKLRNAKTELYGGELVPPFEAPFRAEWILAAVKEAGFDDVVAPARHGLETVLKVHDAGYLNFLETAWDRWKAAGYKGEAIATSFPVRRTSPRIPTDIEGQIGYYCNAAETAISPGTWEAALSSMASAIDGADLIAAGHKAAFSLCRPPGHHAGIDMFGGYCFINNAAVAAQRLLDKGAKKIAILDVDFHHGNGTQDIFYERGDVFFASLHGDPAEAFPHFLGYAEETGKGAGAGTTANYPMGRGTPYSVWGEALTDSLKRIAAFGAEAIVVSLGVDTFEQDPISFFKLTSPDYITMGRTIAASGVPLLVVMEGGYGVPEIGLNVANVLKGVAG
As for B1, the Km amounted to 220 ± 70 µM in data set [1]; 120 ± 20 µM in data set [2]; 180 ± 60 µM in data set [3]; 80 ± 20 µM in data set [4]; 110 ± 20 µM in data set [5]; 22 ± 4 µM in data set [6]. Also, the values for the Km in data set [7] and in data set [8] were 70 ± 20 µM and 60 ± 10 µM, respectively. For the same protein, the kcat turned out to be 0.13 ± 0.02 s⁻¹ in data set [1]; 0.0067 ± 0.0005 s⁻¹ in data set [2]; 1.3 ± 0.2 s⁻¹ in data set [3]; 2.5 ± 0.3 s⁻¹ in data set [4]; 1.1 ± 0.1 s⁻¹ in data set [5]; 1.5 ± 0.1 s⁻¹ in data set [6]. Further, the catalytic constant (kcat) is 0.6 ± 0.05 s⁻¹ in data set [7] and 0.2 ± 0.01 s⁻¹ in data set [8]. The kcat/Km in data set [1] came to 600 ± 100 M⁻¹ s⁻¹; in data set [2], 50 ± 5 M⁻¹ s⁻¹; in data set [3], 7000 ± 1000 M⁻¹ s⁻¹; in data set [4], 30000 ± 5000 M⁻¹ s⁻¹; in data set [5], 10000 ± 1000 M⁻¹ s⁻¹; in data set [6], 68000 ± 7000 M⁻¹ s⁻¹. Also, the kcat/Km came to 7400 ± 600 M⁻¹ s⁻¹ in data set [7] and 2500 ± 900 M⁻¹ s⁻¹ in data set [8].
